Source: paper PMC4893161, “The Dynamic Localization of Cytoplasmic Dynein in Neurons Is Driven by Kinesin-1” (Neuron, 2016)
pKd: −log10 of the molar value.

What was measured:
[1] = biological target: KLC2^TPR, purified TPR domain of KLC2; assay: fluorescence polarisation; TAMRA-conjugated DIC1 tryptophan-motif peptides with purified KLC1 or KLC2 TPR domain; KD values determined at 150 mM NaCl
[2] = biological target: HA-tagged KLC1 (kinesin light chain 1) (UniProt O88447); assay: co-immunoprecipitation (IP with anti-mCherry, western blot band intensity); conditions: COS cells cotransfected, n = 6 experiments, parent: est. 1, read off a plot
Sequence of HA-tagged KLC1 (kinesin light chain 1) (O88447 whole entry): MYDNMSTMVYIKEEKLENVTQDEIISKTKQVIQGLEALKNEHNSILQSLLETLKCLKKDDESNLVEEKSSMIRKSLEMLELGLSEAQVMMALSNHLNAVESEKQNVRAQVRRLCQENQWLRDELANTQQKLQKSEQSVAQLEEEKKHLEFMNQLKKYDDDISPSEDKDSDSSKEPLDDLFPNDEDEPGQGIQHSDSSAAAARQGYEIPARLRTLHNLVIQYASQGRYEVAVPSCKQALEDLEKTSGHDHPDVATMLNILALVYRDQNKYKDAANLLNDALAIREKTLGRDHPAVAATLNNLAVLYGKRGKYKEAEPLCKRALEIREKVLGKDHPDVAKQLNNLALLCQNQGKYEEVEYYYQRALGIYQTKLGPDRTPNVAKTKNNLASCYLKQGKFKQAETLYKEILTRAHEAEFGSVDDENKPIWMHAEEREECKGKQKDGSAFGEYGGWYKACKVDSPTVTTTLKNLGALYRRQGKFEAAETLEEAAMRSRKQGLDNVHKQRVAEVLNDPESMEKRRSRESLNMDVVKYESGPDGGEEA

[3] = biological target: HA-tagged KLC2 (kinesin light chain 2) (UniProt O88448); assay: as above; conditions: COS cells cotransfected, n = 4 experiments, parent: est. 1, read off a plot
Sequence of HA-tagged KLC2 (kinesin light chain 2) (O88448 whole entry): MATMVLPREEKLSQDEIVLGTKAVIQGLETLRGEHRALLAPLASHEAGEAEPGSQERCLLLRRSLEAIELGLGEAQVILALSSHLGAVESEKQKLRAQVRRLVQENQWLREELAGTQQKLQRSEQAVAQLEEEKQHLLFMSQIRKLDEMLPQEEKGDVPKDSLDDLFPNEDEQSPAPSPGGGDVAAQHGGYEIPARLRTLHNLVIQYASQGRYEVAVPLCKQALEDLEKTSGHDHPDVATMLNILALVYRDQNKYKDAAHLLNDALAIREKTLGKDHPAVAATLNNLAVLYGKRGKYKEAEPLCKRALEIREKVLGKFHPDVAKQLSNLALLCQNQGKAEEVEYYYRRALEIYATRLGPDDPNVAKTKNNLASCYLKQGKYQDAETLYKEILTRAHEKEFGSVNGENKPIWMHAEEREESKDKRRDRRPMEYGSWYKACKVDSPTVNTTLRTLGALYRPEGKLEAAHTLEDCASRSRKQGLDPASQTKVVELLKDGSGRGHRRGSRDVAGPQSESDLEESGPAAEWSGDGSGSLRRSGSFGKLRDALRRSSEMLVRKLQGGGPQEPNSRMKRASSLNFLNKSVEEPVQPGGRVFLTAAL

## WD1^pept, TAMRA-conjugated 11-amino-acid peptide centered on the first tryptophan motif of DIC1
[1]
  pKd: 5.04

## mCherry-tagged DIC1a (dynein intermediate chain 1, isoform a), wild-type (from UniProt Q63100) WD1&2AA
[2]; p = 0.039 vs WT
  ratio to parent: 0.47
[3]; p = 0.014 vs WT
  ratio to parent: 0.53

## mCherry-tagged DIC1a (dynein intermediate chain 1, isoform a), wild-type (from UniProt Q63100) WD1AA
[2]; p = 1 vs WT
  ratio to parent: 0.93
[3]; p = 0.4 vs WT
  ratio to parent: 0.77

## mCherry-tagged DIC1a (dynein intermediate chain 1, isoform a), wild-type (from UniProt Q63100) WD2AA
[2]; p = 0.08 vs WT
  ratio to parent: 0.53
[3]; p = 0.064 vs WT
  ratio to parent: 0.63
